Assay results from PMC12866822.

Molecular target: pyruvate kinase M2 (PKM2), endogenous in RAW264.7 macrophages (mouse (endogenous in RAW264.7)) (UniProt P52480)
Assay: cross-linking; lysates (RIPA buffer) of cells with endogenous PKM2 (RAW264.7, LX2, WRL68) treated with 1 µM DSS on ice for 1 h, SDS-PAGE, blot with PKM2 antibody; cells treated with the four compounds, or LPS with FE (12.5, 25, 50 µM) or DASA-58

Sequence of pyruvate kinase M2 (PKM2), endogenous in RAW264.7 macrophages, P52480 1-531 (enzyme; other documents disagree on this pair) (P52480 whole entry): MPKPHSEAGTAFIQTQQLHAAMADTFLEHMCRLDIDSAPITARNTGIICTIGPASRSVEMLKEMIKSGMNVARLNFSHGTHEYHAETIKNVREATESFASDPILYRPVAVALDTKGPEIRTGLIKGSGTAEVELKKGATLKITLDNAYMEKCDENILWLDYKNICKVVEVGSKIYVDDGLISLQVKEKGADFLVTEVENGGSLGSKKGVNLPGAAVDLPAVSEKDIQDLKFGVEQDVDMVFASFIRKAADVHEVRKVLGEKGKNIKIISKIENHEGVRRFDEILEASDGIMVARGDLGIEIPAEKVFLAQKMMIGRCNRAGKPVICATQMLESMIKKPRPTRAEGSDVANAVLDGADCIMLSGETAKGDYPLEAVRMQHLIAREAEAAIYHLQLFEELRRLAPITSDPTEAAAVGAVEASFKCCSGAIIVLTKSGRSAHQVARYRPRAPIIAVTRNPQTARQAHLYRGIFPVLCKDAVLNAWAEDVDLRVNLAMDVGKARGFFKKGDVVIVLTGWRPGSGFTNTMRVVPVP

pyruvate kinase M2 (PKM2), endogenous in RAW264.7 macrophages, P52480 1-531 (enzyme; other documents disagree on this pair)
stoichiometry N: 4
